Measurements: US20040005543, “Compositions and methods for binding agglomeration proteins” (published 2004)

Experiments:
[1] = target: T1, hrPrP23-231 (recombinant human prion protein, full length) (Homo sapiens, UniProt P04156 P04156:23-231); assay: filter; no tRNA; 2 mM MgCl2, 250 mM NaCl, 37 C; conditions: tags: provided by Man-Sun Sy, Case Western; label: internal 32P
[2] = target: T1, hrPrP23-231 (recombinant human prion …); assay: filter; […]; 2 mM MgCl2, 250 mM NaCl, 37 C; […]; conditions: tags: provided by Man-Sun Sy, Case Western; label: internal 32P; G4 (AP1 insert)
[3] = target: hrPrP90-231 (C-terminal portion) (Homo sapiens, UniProt P04156 P04156:90-231); assay: filter; 20 nM protein; no detectable binding; conditions: tags: provided by Man-Sun Sy, Case Western, label: internal 32P
[4] = target: T1, hrPrP23-231 (recombinant human prion …); assay: filter; with 10 ng/uL tRNA; 250 mM NaCl, 37 C; conditions: tags: provided by Man-Sun Sy, Case Western; label: internal 32P
[5] = target: T2, hrPrP23-144 (N-terminal portion) (Homo sapiens, UniProt P04156 P04156:23-144); assay: filter; 20 nM protein, no tRNA; conditions: tags: provided by Man-Sun Sy, Case Western; label: internal 32P
lysozyme = lysozyme (UniProt P00698 P00698:19-147); assay: filter; 2 nM RNA, 20 nM protein, Buffer A with 10 ng/uL tRNA; background level; conditions: label: internal 32P
[6] = target: BSA (bovine serum albumin) (UniProt P02769 P02769:25-607); assay: filter; Buffer A with 10 ng/uL tRNA; background level; conditions: tags: Ultra-pure BSA, Ambion; label: internal 32P
[7] = target: T2, hrPrP23-144 (N-terminal portion); assay: filter; 20 nM protein, Buffer B with tRNA; conditions: tags: provided by Man-Sun Sy, Case Western; label: internal 32P

B1: RQT157 (ssRNA)
RNA: GGGGUUUCGAACCGGAAUUUGAGGGAUGCCUAGGCAUCCCCCGUGCGUCCCUUUACGAGGGAUUGUCGACUCUAGAGGAUCCGGUACCUGAGGGAUGCCUAGGCAUCCCCGCGCGCCGGUUUCGGACCUCCAGUGCGUGUUACCGCACUGUCGACCC
Which Kd [1] does the source give for B1 here?
Its Kd is 56 nM.

B2: MNV:AP1 (PrP-Amp) (ssRNA)
RNA: GGGUUCAUAGCCUAUUCGGCUUCGCGCAUGGGAAUUUGAGGGACGAUGGGGAAGUGGGAGCGCGUUUUAAAGGACCUUUUUCCCUCGCGUAGCUAGCUACGCGAGGUGACCCCCCGAAGGGGGGUGCCCC
Which Kd [2] does the source give for B2 here?
The Kd was 3.8 nM.

Does B2 bind ([3]; G4 (AP1 insert))?
Result: no binding

For GGGAAUUUGAGGACGAUGGUAAGUGG (ssRNA) [AP46], which Kd [4] is on record?
The Kd was 100 nM.

What about the Kd [1] of the same binder?
Its Kd is 14 nM.

B3: MNV (ssRNA)
RNA: GGGUUCAUAGCCUAUUCGGCUUUUAAAGGACCUUUUUCCCUCGCGUAGCUAGCUACGCGAGGUGACCCCCCGAAGGGGGGUGCCCC
Does B3 bind [5]?
Result: binds

Does B3 bind [3]?
Result: no binding

B4: RQ11+12 (ssRNA)
RNA: GGGGUUUCCAACCGGAAUUUGAGGGAUGCCUAGGCAUCCCCCGUGCGUCCCUUUACGAGGGAUUGUCGACUCUAGUCGACGUCUGGGCGAAAAAUGUACGAGAGGACCUUUUCGGUACAGACGGUACCUGAGGGAUGCCUAGGCAUCCCCCGCGCCGGUUUCGGACCUCCAGUGCGUGUUACCGCACUGUCGACCC
Does B4 bind (lysozyme)?
Result: no binding

Does B4 bind [6]?
Result: no binding

Does B4 bind [7]?
Result: binds

Does B4 bind [3]?
Result: no binding
